Reference: patent US20220177604A1 (ARGENX, published 2022)

B1: OMA VH15 - VL3 (antibody, V domains shown)
VH: EVQLVESGGGLVQPGGSLRLSCAVSGYSITSGHRWEWIRQAPGKGLEWVASIHYDGSTNYNPSVKGRITISRDDSKNTFYLQMNSLRAEDTAVYYCARATHYFGHWHFAVWGQGTLVTVSS
VL: DIQLTQSPSSLSASVGDRVTITCRASQSVDYDGDSYMNWYQQKPGKAPKLLIEWGSYLRSGVPSRFSGSGSGTDFTLTISSLQPEDFATYYCQQNAEDPYTFGQGTKVEIK
B2: Oma VH15W100b - VL3D28HS31H (antibody, V domains shown)
VH: EVQLVESGGGLVQPGGSLRLSCAVSGYSITSGHRWEWIRQAPGKGLEWVASIHYDGSTNYNPSVKGRITISRDDSKNTFYLQMNSLRAEDTAVYYCARATHYFGHHHFAVWGQGTLVTVSS
VL: DIQLTQSPSSLSASVGDRVTITCRASQSVDYHGDHYMNWYQQKPGKAPKLLIEWGSYLRSGVPSRFSGSGSGTDFTLTISSLQPEDFATYYCQQNAEDPYTFGQGTKVEIK
B3: OMA VH15 - VL3S31H (antibody, V domains shown)
VH: EVQLVESGGGLVQPGGSLRLSCAVSGYSITSGHRWEWIRQAPGKGLEWVASIHYDGSTNYNPSVKGRITISRDDSKNTFYLQMNSLRAEDTAVYYCARATHYFGHWHFAVWGQGTLVTVSS
VL: DIQLTQSPSSLSASVGDRVTITCRASQSVDYDGDHYMNWYQQKPGKAPKLLIEWGSYLRSGVPSRFSGSGSGTDFTLTISSLQPEDFATYYCQQNAEDPYTFGQGTKVEIK
B4: Oma VH15W100b - VL3D28H (antibody, V domains shown)
VH: EVQLVESGGGLVQPGGSLRLSCAVSGYSITSGHRWEWIRQAPGKGLEWVASIHYDGSTNYNPSVKGRITISRDDSKNTFYLQMNSLRAEDTAVYYCARATHYFGHHHFAVWGQGTLVTVSS
VL: DIQLTQSPSSLSASVGDRVTITCRASQSVDYHGDSYMNWYQQKPGKAPKLLIEWGSYLRSGVPSRFSGSGSGTDFTLTISSLQPEDFATYYCQQNAEDPYTFGQGTKVEIK
notes: also called Oma VH15W100b VL3D25H
B5: OmaVH15G55H - VL3 (antibody, V domains shown)
VH: EVQLVESGGGLVQPGGSLRLSCAVSGYSITSGHRWEWIRQAPGKGLEWVASIHYDHSTNYNPSVKGRITISRDDSKNTFYLQMNSLRAEDTAVYYCARATHYFGHWHFAVWGQGTLVTVSS
VL: DIQLTQSPSSLSASVGDRVTITCRASQSVDYDGDSYMNWYQQKPGKAPKLLIEWGSYLRSGVPSRFSGSGSGTDFTLTISSLQPEDFATYYCQQNAEDPYTFGQGTKVEIK
B6: OmaVH15G55HW100b - VL3S31H (antibody, V domains shown)
VH: EVQLVESGGGLVQPGGSLRLSCAVSGYSITSGHRWEWIRQAPGKGLEWVASIHYDHSTNYNPSVKGRITISRDDSKNTFYLQMNSLRAEDTAVYYCARATHYFGHHHFAVWGQGTLVTVSS
VL: DIQLTQSPSSLSASVGDRVTITCRASQSVDYDGDHYMNWYQQKPGKAPKLLIEWGSYLRSGVPSRFSGSGSGTDFTLTISSLQPEDFATYYCQQNAEDPYTFGQGTKVEIK
B7: OMA VH15 - VL3D28HS31H (antibody, V domains shown)
VH: EVQLVESGGGLVQPGGSLRLSCAVSGYSITSGHRWEWIRQAPGKGLEWVASIHYDGSTNYNPSVKGRITISRDDSKNTFYLQMNSLRAEDTAVYYCARATHYFGHWHFAVWGQGTLVTVSS
VL: DIQLTQSPSSLSASVGDRVTITCRASQSVDYHGDHYMNWYQQKPGKAPKLLIEWGSYLRSGVPSRFSGSGSGTDFTLTISSLQPEDFATYYCQQNAEDPYTFGQGTKVEIK
B8: OMA VH15 - VL3D28H (antibody, V domains shown)
VH: EVQLVESGGGLVQPGGSLRLSCAVSGYSITSGHRWEWIRQAPGKGLEWVASIHYDGSTNYNPSVKGRITISRDDSKNTFYLQMNSLRAEDTAVYYCARATHYFGHWHFAVWGQGTLVTVSS
VL: DIQLTQSPSSLSASVGDRVTITCRASQSVDYHGDSYMNWYQQKPGKAPKLLIEWGSYLRSGVPSRFSGSGSGTDFTLTISSLQPEDFATYYCQQNAEDPYTFGQGTKVEIK
notes: also called OMA VH15 VL3D25H
B9: OmaVH15G55H - VL3D28H (antibody, V domains shown)
VH: EVQLVESGGGLVQPGGSLRLSCAVSGYSITSGHRWEWIRQAPGKGLEWVASIHYDHSTNYNPSVKGRITISRDDSKNTFYLQMNSLRAEDTAVYYCARATHYFGHWHFAVWGQGTLVTVSS
VL: DIQLTQSPSSLSASVGDRVTITCRASQSVDYHGDSYMNWYQQKPGKAPKLLIEWGSYLRSGVPSRFSGSGSGTDFTLTISSLQPEDFATYYCQQNAEDPYTFGQGTKVEIK
notes: also called OmaVH15G55H VL3D25H
B10: Oma VH15W100b - VL3S31H (antibody, V domains shown)
VH: EVQLVESGGGLVQPGGSLRLSCAVSGYSITSGHRWEWIRQAPGKGLEWVASIHYDGSTNYNPSVKGRITISRDDSKNTFYLQMNSLRAEDTAVYYCARATHYFGHHHFAVWGQGTLVTVSS
VL: DIQLTQSPSSLSASVGDRVTITCRASQSVDYDGDHYMNWYQQKPGKAPKLLIEWGSYLRSGVPSRFSGSGSGTDFTLTISSLQPEDFATYYCQQNAEDPYTFGQGTKVEIK
B11: OmaVH15G55H - VL3S31H (antibody, V domains shown)
VH: EVQLVESGGGLVQPGGSLRLSCAVSGYSITSGHRWEWIRQAPGKGLEWVASIHYDHSTNYNPSVKGRITISRDDSKNTFYLQMNSLRAEDTAVYYCARATHYFGHWHFAVWGQGTLVTVSS
VL: DIQLTQSPSSLSASVGDRVTITCRASQSVDYDGDHYMNWYQQKPGKAPKLLIEWGSYLRSGVPSRFSGSGSGTDFTLTISSLQPEDFATYYCQQNAEDPYTFGQGTKVEIK

Tests used:
[1] = molecular target: T1, recombinant Motavizumab human IgE (rMota-hIgE) (human, UniProt P01854 1-428); experiment: hIgE binding ELISA
T1 construct: also called Recombinant IgE (argenx)
Protocol: (§1) Briefly a Maxisorp plate was coated with recombinant human respiratory syncytial virus protein F (RSV-F) (0.5 μg/mL), then blocked with PBS with 3% BSA and 0.05% Tween. […] After several washing steps at pH 7.4 or pH 5.5, detection of the bound mAbs was carried out with an anti-human Fc-HRP antibody.

[2] = molecular target: T2, human immunoglobulin E (hIgE) (human, UniProt P01854-1 1-428); experiment: SPR (Biacore), pH 6.0
T2 construct: also called human IgE; Native IgE (Abcam)

[3] = molecular target: T2, human immunoglobulin E (hIgE); experiment: SPR (Biacore), pH 7.4
[4] = molecular target: T1, recombinant Motavizumab human IgE …; experiment: hIgE binding ELISA, pH 5.5
Protocol: as §1

[5] = molecular target: T1, recombinant Motavizumab human IgE …; experiment: hIgE binding ELISA, pH 7.4
Protocol: as §1

[6] = molecular target: T2, human immunoglobulin E (hIgE); experiment: competition ELISA, hIgE to hFcεRIα
[7] = molecular target: T2, human immunoglobulin E (hIgE); experiment: SPR (Biacore)

T2 sequence (P01854 whole entry): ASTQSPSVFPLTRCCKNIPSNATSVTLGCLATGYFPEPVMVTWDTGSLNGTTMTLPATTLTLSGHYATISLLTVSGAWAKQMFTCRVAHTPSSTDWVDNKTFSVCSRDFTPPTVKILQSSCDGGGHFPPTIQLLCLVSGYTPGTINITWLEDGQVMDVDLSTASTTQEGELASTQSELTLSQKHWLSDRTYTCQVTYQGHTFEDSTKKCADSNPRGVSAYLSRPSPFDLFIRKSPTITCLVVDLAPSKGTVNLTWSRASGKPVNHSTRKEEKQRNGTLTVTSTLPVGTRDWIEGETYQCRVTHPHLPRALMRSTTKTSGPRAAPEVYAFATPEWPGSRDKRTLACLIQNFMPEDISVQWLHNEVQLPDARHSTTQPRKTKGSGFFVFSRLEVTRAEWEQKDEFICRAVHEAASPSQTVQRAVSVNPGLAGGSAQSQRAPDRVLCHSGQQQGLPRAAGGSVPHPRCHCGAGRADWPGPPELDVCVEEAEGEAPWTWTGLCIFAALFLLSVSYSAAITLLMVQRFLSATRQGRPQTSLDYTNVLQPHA
T1 sequence (P01854 other isoform, or with tags, fused parts or gaps limits assumed, form in doubt): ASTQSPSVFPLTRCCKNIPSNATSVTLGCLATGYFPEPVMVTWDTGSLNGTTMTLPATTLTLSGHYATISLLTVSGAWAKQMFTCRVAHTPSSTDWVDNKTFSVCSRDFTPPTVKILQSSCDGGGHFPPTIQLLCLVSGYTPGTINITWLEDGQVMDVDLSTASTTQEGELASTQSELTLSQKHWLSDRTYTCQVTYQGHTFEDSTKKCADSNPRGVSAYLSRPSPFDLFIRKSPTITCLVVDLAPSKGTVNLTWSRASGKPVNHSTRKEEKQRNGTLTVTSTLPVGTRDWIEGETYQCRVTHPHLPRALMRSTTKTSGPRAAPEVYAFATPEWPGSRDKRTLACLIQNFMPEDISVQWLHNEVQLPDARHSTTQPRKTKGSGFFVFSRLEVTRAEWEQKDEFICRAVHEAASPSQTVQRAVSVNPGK

Binder | Ratio EC50 pH 5.5/7.4 [1] | Ratio EC50 pH 7.4/5.5 [1] | Kd [2] [nM] | koff [2] [s⁻¹] | kon [2] [M⁻¹ s⁻¹] | Kd [3] [nM] | koff [3] [s⁻¹] | kon [3] [M⁻¹ s⁻¹] | EC50 [4] [µg/mL] | EC50 [5] [µg/mL] | IC50 [6] [nM] | Ratio pH 7.4/pH6.0 (of KD) [7]
B1 | 1.1 | 0.93 | 1.03 | 0.00029 | 281000 | < 0.0769 | < 1e-05 | 130000 | 0.0217 | 0.0202 | 0.0803 | –
B2 | – | – | 206 | 0.0895 | 453000 | 8.78 | 0.00251 | 290000 | – | 0.0156 | 585 | 23.5
B3 | 0.9 | 1.12 | 8.93 | 0.00228 | 261000 | 0.534 | 0.000166 | 310000 | 0.0179 | 0.02 | 0.206 | 16.7
B4 | – | – | 64.5 | 0.0148 | 232000 | 8.59 | 0.00182 | 213000 | – | 0.015 | 35 | 7.5
B5 | 0.9 | 1.16 | 1.8 | 0.000524 | 291000 | 0.326 | 0.000105 | 323000 | 0.022 | 0.0255 | 0.0753 | 5.6
B6 | – | – | 312 | 0.0986 | 243000 | 15.4 | 0.00391 | 253000 | – | 0.0191 | 446 | 20.3
B7 | 1.2 | 0.86 | 12.8 | 0.00398 | 310000 | 1.1 | 0.000334 | 302000 | 0.0178 | 0.0153 | 0.722 | 11.7
B8 | 1 | 0.99 | 2.62 | 0.000736 | 281000 | 0.168 | 4.41e-05 | 264000 | 0.0164 | 0.0163 | 0.137 | 15.6
B9 | 0.9 | 1.05 | 4.39 | 0.00117 | 265000 | 0.728 | 0.000206 | 283000 | 0.0251 | 0.0264 | 0.187 | 6
B10 | – | – | 190 | 0.0375 | 206000 | 6.12 | 0.00244 | 398000 | – | 0.0152 | – | 31.1
B11 | 1.5 | 0.67 | 9.07 | 0.00297 | 329000 | 1.33 | 0.000402 | 301000 | 0.023 | 0.0153 | 0.485 | 6.8
